Reference: article PMC7823470, “Arabidopsis Plant Natriuretic Peptide Is a Novel Interactor of Rubisco Activase” (Life, 2020)

Key:
[1] = tested on: Pst DC3000; set-up: method as in PMID 32409317; conditions: exogenous application; cited from earlier work
Excerpt: (§1) Tobacco (Nicotiana tabacum) RCA gene is involved in resistance to herbivory, and its down-regulation impaired JA signaling and led to reduced defense against both generalist (Spodoptera littoralis) and specialist (Manduca sexta) herbivore elicitation ...

[2] = tested on: RCA; conditions: Yeast Two-Hybrid, AtPNP-A lacking the signal peptide; cited from earlier work
[3] = tested on: plant leaves; set-up: method as in 2 sources, ref 13, 20 = [13]; PMID 21550130; doi:10.1016/j.jplph.2011.03.011; 13. Ruzvidzo O. Donaldson L. Valentine A. Gehring C. The Arabidopsis thaliana natriuretic peptide AtPNP-A is a systemic regulator of leaf dark respiration and signals via the phloem J. Plant Physiol. || [20]; PMID 19015524; doi:10.1073/pnas.0810107105; 20. Gottig N. Garavaglia B.S. Daurelio L. Valentine A.J. Gehring C. Orellano E.G. Ottado J. Xanthomonas axonopodis pv. citri uses a plant natriuretic peptide-like protein to modify host homeostasis Pr ||| ref 20 = [20]; PMID 19015524; doi:10.1073/pnas.0810107105; 20. Gottig N. Garavaglia B.S. Daurelio L. Valentine A.J. Gehring C. Orellano E.G. Ottado J. Xanthomonas axonopodis pv. citri uses a plant natriuretic peptide-like protein to modify host homeostasis Pr; conditions: cited from earlier work
Excerpt: as §1, with “In the host–pathogens ‘arms race’, bacteria may acquire ‘eukaryotic-like’ genes from their hosts through horizontal gene transfer. […] Tobacco” for “Tobacco”

[4] = tested on: Rubisco activase (RCA); assay: Affinity isolation with LC-MS/MS; format: binding, Arabidopsis thaliana; conditions: pAtPNP-A bait vs pScr control
Protocol: Isolation of putative interactors of AtPNP-A was performed as described previously with minor modifications. For each sample, 5 g of plant material was used, no cross-linker was applied, the supernatant was incubated either with the N-terminally biotinylated pAtPNP-A or pScr (negative control) for 15 min. The protein extract mixture was incubated with Dynabeads M-280 (Life Technologies, Singapore) for 30 min. Eluted proteins were separated by SDS-PAGE (10% gels run for 15 min at 100V) and bands visualized with Coomassie Brilliant Blue (Figure S1). Bands were excised for trypsin in-gel digestion of proteins. MS analyses were performed on linear trap quadrupole (LTQ) Orbitrap Velos mass spectrometer (Thermo Scientific, Waltham, MA, USA) under conditions previously described. Scaffold version 4.11.1 (Proteome Software Inc.) was used to validate MS/MS based peptide and protein identification. […] Relative quantification of total spectrum counts of proteins identified with a confidence level of at least 99% at FDR < 0.1 in each sample containing pAtPNP-A or pScr (negative control) from three independent experiments was performed using Scaffold. […] The quantification file as well as the raw data are available via ProteomeXchange with identifier PXD023216, and the MS information is integrated in Supplementary Tables S1–S6.

B1: AtPNP-A: Arabidopsis thaliana PNP, termed AtPNP-A (At2g18660; Q9ZV52) (protein)
chain: AQGKAVYYDPPYTRSACYGTQRETLVVGVKNNLWQNGRACGRRYRVRCIGATYNFDRACTGRTVDVKVVDFCREPCNGDLNLSRDAFRVIANTDAGNIRVVYTPI
modifications: left off: His6, N-terminal, kept
Susceptibility to Pst DC3000 [1]: enhanced susceptibility to Pst DC3000 | Interaction with RCA [2]: strong interactor | Leaf photosynthetic rates and apparent photon yield [3]: modulate leaf photosynthetic rates and apparent photon yield | Leaf dark respiration rates ([3]; treatment of plant leaves): triggers increase in leaf dark respiration rates | Leaf photosynthetic rates and efficiency of light utilization ([3]; treatment of plant leaves): regulates leaf photosynthetic rates and efficiency of light utilization during photosynthetic CO2 fixation | Leaf transpiration rates ([3]; treatment of plant leaves): higher leaf transpiration rates | Starch in guard cell chloroplasts ([3]; treatment of plant leaves): induces starch reduction in guard cell chloroplasts | Stomatal conductance and stomatal opening ([3]; treatment of plant leaves): increases stomatal conductance and stomatal opening | Identification of RCA as interactor [4]: identified with high confidence
